Laboratory results: paper PMC5019376

B1: TIR1 (wild type, epitope-tagged, expressed in Nicotiana) [Arabidopsis] / GST-IAA3 [Arabidopsis] (parent)
chain 1: MQKRIALSFPEEVLEHVFSFIQLDKDRNSVSLVCKSWYEIERWCRRKVFIGNCYAVSPATVIRRFPKVRSVELKGKPHFADFNLVPDGWGGYVYPWIEAMSSSYTWLEEIRLKRMVVTDDCLELIAKSFKNFKVLVLSSCEGFSTDGLAAIAATCRNLKELDLRESDVDDVSGHWLSHFPDTYTSLVSLNISCLASEVSFSALERLVTRCPNLKSLKLNRAVPLEKLATLLQRAPQLEELGTGGYTAEVRPDVYSGLSVALSGCKELRCLSGFWDAVPAYLPAVYSVCSRLTTLNLSYATVQSYDLVKLLCQCPKLQRLWVLDYIEDAGLEVLASTCKDLRELRVFPSEPFVMEPNVALTEQGLVSVSMGCPKLESVLYFCRQMTNAALITIARNRPNMTRFRLCIIEPKAPDYLTLEPLDIGFGAIVEHCKDLRRLSLSGLLTDKVFEYIGTYAKKMEMLSVAFAGDSDLGMHHVLSGCDSLRKLEIRDCPFGDKALLANASKLETMRSLWMSSCSVSFGACKLLGQKMPKLNVEVIDERGAPDSRPESCPVERVFIYRTVAGPRFDMPGFVWNMDQDSTMRFSRQIITTNGL
chain 2: MDEFVNLKETELRLGLPGTDNVCEAKERVSCCNNNNKRVLSTDTEKEIESSSRKTETSPPRKAQIVGWPPVRSYRKNNIQSKKNESEHEGQGIYVKVSMDGAPYLRKIDLSCYKGYSELLKALEVMFKFSVGEYFERDGYKGSDFVPTYEDKDGDWMLIGDVPWEMFICTCKRLRIMKGSEAKGLGCGV

Variants of: B1
Experiment: pull-down (semi in vitro, GST-IAA3 with Nicotiana cell extracts, anti-HA blot)
Settings: 10 µM 2,4-D

Question: With chain 1 G142A as the variant, how does the ratio to parent read?
Answer: 0.45

Question: How did the ratio to parent turn out when chain 1 I151A was run?
Answer: 0.46

Question: With chain 1 F143A as the variant, how does the ratio to parent read?
Answer: 0.5

Question: How did the ratio to parent turn out when chain 1 V117A was run?
Answer: 0.44

Question: How did the ratio to parent turn out when chain 1 C140A was run?
Answer: 0.62
